The target of experiment [1] is T1, DHT01-4arm-02 chain B.
T1 construct: Strep-tag II was added to the N-terminus of chain B of DHT01 arms; also called C2-DHT01-04 chain B
T1 chain: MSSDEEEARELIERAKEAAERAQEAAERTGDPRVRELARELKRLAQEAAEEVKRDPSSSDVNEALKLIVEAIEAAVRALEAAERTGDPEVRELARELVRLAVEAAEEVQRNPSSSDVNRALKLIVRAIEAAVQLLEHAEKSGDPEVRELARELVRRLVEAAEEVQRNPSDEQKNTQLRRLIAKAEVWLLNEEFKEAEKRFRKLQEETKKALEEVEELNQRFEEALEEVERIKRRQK
Briefly: bicistronic expression, SAXS, negative stain EM; A2B2 ring.

For experiment [2], the target named is T1, DHT01-4arm-02 chain B. Briefly: SEC and SDS-PAGE; chains of one ABC heterotrimer.
The target in another experiment is T2, DHT01-4arm-01 chain C.
T2 construct: also called DHT01-4arm-02 chain C; C2-DHT01-01 chain B
T2 chain: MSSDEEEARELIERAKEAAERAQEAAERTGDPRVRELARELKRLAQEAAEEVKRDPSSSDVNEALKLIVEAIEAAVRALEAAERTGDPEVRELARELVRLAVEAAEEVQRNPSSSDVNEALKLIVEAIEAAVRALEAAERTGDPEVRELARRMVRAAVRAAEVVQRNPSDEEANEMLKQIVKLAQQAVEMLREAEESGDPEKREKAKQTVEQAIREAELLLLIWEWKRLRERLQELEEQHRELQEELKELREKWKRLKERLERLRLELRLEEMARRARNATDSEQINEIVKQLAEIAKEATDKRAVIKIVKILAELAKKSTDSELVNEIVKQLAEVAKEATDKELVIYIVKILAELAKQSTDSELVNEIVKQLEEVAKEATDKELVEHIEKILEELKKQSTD
Nature of the experiment: co-expression, pull-downs, SEC, native MS, SAXS; chains of one ABC heterotrimer.

The next experiment deals with T3, DHT01-4arm-01 chain B.
T3 construct: Strep-tag II was added to the N-terminus of chain B of DHT01 arms
T3 chain: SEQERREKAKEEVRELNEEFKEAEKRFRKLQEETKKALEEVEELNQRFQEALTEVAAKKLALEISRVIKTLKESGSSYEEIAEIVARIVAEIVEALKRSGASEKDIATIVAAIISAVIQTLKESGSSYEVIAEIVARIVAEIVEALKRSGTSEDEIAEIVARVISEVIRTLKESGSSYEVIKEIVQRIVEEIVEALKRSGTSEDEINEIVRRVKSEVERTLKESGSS
Described as above.

B1: C2-DHT01-04 chain A (designed binder)
chain: DEEEKLRESLEEQKKRVKEIEREHEEIREALKRLQQSVLRQAVRLAKLGDDSEMINRIVKDLAEQAKEATDKREVIKIVKALAELAKNSTDRELINEIAKQLAEVAKEATDEELQRYIAKILIELAEQAIKEAERSLREGNPEKAREDVRLALELVRLLLEIAQALNLLEVLEEAARLAFEVARVAKEVGSPETARQARETAERLLEWAMKMIEEKAKKEKDRNDQSSDVNEAAKLIREAAEAAQRAREAASRTGDPEVKDLAWRMVEAALKAAAVVATNPSDEEANEMLKQIVKLAQQAVEMLREAEESGDPEKREKAKQTVEQAIREAELLLLIWEWKRLRERLQELEEQHRELQEELKELREKWKRLKERLERLRLELRLEEMARRARNATDSEQINEIVKQLAEIAKEATDKRAVIKIVKILAELAKKSTDSELVNEIVKQLAEVAKEATDKELVIYIVKILAELAKQSTDSELVNEIVKQLEEVAKEATDKELVEHIEKILEELKKQSTD
notes: two copies in the A2B2 ring
For B1, in the experiment with DHT01-4arm-02 chain B [1], the binding result was “binds”.

B2: DHT01-4arm-01 chain A (designed binder)
chain: DEEEKLRESLEEQKKRVKEIEREHEEIREALKRLQQSVLRQAVRLAKLGDDSEMINRIVKDLAEQAKEATDKREVIKIVKALAELAKNSTDSELVNEIVKQLAEVAKEATDKELVIYIVKILAELAKQSTDSELVNEIVKQLEEVAKEATDKELVEHIEKILEELKKQSTD
notes: also called DHT01-4arm-02 chain A
On to B2, for which the binding result with DHT01-4arm-02 chain B [2], with DHT01-4arm-01 chain C and with DHT01-4arm-01 chain B was “binds” throughout.

The record behind these values is patent publication US20240029824A1 (University of Washington, published 2024).
